The series deals with MS2 coat protein. In words: apparent KD of MS2 coat protein; higher = weaker reporter binding. To be noted: Eterna round: R107. On the procedure: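 RNA-MaP round R107: designed RNA switches with theophylline, tryptophan, arginine or FMN aptamers are transcribed on-chip within common flanks. They are titrated with SNAP-549-labelled MS2 coat protein in RNA-MaP buffer (100 mM Tris pH 7.5, 80 mM KCl, 4 mM MgCl2), without ligand or with the indicated ligand. Median apparent KD per design.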

Setting [1] is: input ligand: theophylline 20 uM.
Setting [2] is: input ligand: theophylline 2 mM.
Setting [3] is: input ligand: tryptophan 2.4 mM.

Turning to “AAUGGUGGAACGAAGUACAGGAGUACAAAUCGAGGACCGGUACGGCCGCCACUCGCGAAAGAACAUGAGGAUCACCCAUGUAAAA [theeternabot_exclusion_MS2_Trp_A_34]”, the “apparent KD of MS2 coat protein” value (input ligand: arginine 13.2 mM) is 12.1 nM; the “apparent KD of MS2 coat protein” value (input ligand: none) was found to be 8.09 nM; the “apparent KD of MS2 coat protein” value under setting [1] worked out at 21.8 nM; the “apparent KD of MS2 coat protein” value under setting [2] was determined as 177 nM; the “apparent KD of MS2 coat protein” value under setting [3] is 11.1 nM.
The like results for “AAUUAUUACGGAAGGAGCGUCUUUCGGCUCAAACAUGAGGAUCACCCAUGUGAUUUUGAAUGACAGGUAGGUCGCCGAUAUUUGA [JR_AAArginiB_Sub030]” were, in that order, 24.4 nM, 26.4 nM, 41.5 nM, 32.1 nM and 25.2 nM.
On to “AAUUGCGUUGGUGAGGCGGUUAAUGGCGAUACCAGCGUGGAAACACGCCCUUGGCAGCGCCAAAACAUGAGGAUCACCCAUGUUA [Liberec]”, for which the “apparent KD of MS2 coat protein” value reads like this: (input ligand: arginine 13.2 mM) 50.7 nM; under setting [1], 149 nM; under setting [3], 82.5 nM.
For the sequence “ACACAUGAGGAUCACCCAUGUCCAAUAGAUACCAGUGAUACAGUGCACCCUUGGCAGCUGUUACUGAGUAAUGGUUCCCUCGGAA [Same State Theophylline A GF2]”, the “apparent KD of MS2 coat protein” value was found to be 26.8 nM (input ligand: arginine 13.2 mM), 48.6 nM under setting [1] and 37.5 nM under setting [3].
Take “ACACCGAAAGGUGCAUUUUCCUUUUCAGAUACCAGACUUUACGUUGUCCCUUGGCAGCUGUAUCACAUGAGGAUCACCCAUGUUG [JR_SSTheophyA_Sub012]”: the “apparent KD of MS2 coat protein” value runs as follows: (input ligand: arginine 13.2 mM) 16 nM; under setting [1], 21.4 nM; under setting [3], 15.9 nM.
For the sequence “ACACGAAGCUGAAGGAGCGUGGUACAAGUUUUUACAUGAGGAUCACCCAUGUUUCGUCAAUCACAGGUAGGUCGCAGAUGCGUGA [#08 Same State - Arginine B]”, the “apparent KD of MS2 coat protein” value runs as follows: (input ligand: arginine 13.2 mM) 32.1 nM; (input ligand: none) 29.2 nM; under setting [1], 42.5 nM; under setting [2], 36.6 nM; under setting [3], 25.9 nM.
Take “ACACGGAAUGAUGGAUCACCUCGUGAAUCACGAGGACCGGUACGGCCGCCACUCGAAAACCGUGACCUGUACGAAAAGUGCAGGA”: the “apparent KD of MS2 coat protein” value (input ligand: arginine 13.2 mM) came out at 322 nM; the “apparent KD of MS2 coat protein” value (input ligand: none) amounted to 89.7 nM; the “apparent KD of MS2 coat protein” value under setting [1] amounted to 232 nM; the “apparent KD of MS2 coat protein” value under setting [2] was 250 nM; the “apparent KD of MS2 coat protein” value under setting [3] is 56.5 nM.
For the sequence “ACACGUGACAAGGAUACCAGCCUGGCUAGUUCAAACCCUCACAUGAGGAUCACCCAUGUAGGCCCUUGGCAGCCUAUAGUCUAAG [theeternabot_exclusion_MS2_Theo_B_38]”, the “apparent KD of MS2 coat protein” value runs as follows: (input ligand: arginine 13.2 mM) 27.7 nM; under setting [1], 43.7 nM; under setting [3], 29.9 nM.
For the sequence “ACAGGAAACGGAAGGAGCGGAAUUGCAACAUGAGGAUCACCCAUGUUGAUCGUGAGUUGCUUCCAGGUAGGUCGCCGUUACCUAA [Erorve]”, the “apparent KD of MS2 coat protein” value is 30.1 nM (input ligand: arginine 13.2 mM); 33.6 nM (input ligand: none); 39.4 nM under setting [1]; 44.2 nM under setting [2]; 30.4 nM under setting [3].
With “ACAUGAACAUGAGGAUCACCCAUGUAUGAUACCAGAAAAGAAGAGUUCCCUUGGCAGCGUACAACACAUGAGGAUCACCCAUGUG [kvcmullin]”, the “apparent KD of MS2 coat protein” value by setting is: (input ligand: arginine 13.2 mM) 20.3 nM; under setting [1], 26.7 nM; under setting [3], 26.1 nM.
The like results for “ACAUGAACAUGAGGAUCACCCAUGUGGGAUACCAGCGUGUAUGAGCGCCCUUGGCAGCUCAUGACAUGAGGAUCACCCAUGUUGG [Exclusion Theophylline A 4]” were, in that order, 154 nM, 242 nM and 224 nM.
“ACAUGAGGAUCACCCAUGUAAGGUCUUGAUACCAGACGAGAAGUAGUCCCUUGGCAGCAAAUACGUGAGGGUCACACAUGUGUAA [edsmullin]”: the “apparent KD of MS2 coat protein” value is, setting by setting: (input ligand: arginine 13.2 mM) 21.6 nM; under setting [1], 37.7 nM; under setting [3], 25.9 nM.
Turning to “ACAUGAGGAUCACCCAUGUAAUUUACAGAAGGAGCGUGAUGGAUCACAGGUAGGUCGCUGUACUGCGAAAGCACUCUCAUGAAUA [JR_Nu_SSArginiA_Sub025]”, the “apparent KD of MS2 coat protein” value runs as follows: (input ligand: arginine 13.2 mM) 18.6 nM; (input ligand: none) 16.8 nM; under setting [1], 25.3 nM; under setting [2], 19.7 nM; under setting [3], 19 nM.
Take “ACAUGAGGAUCACCCAUGUACAUAAGGGAAGGAGCGCGGUGAAACGCAGGUAGGUCGCCCAUAAUAACAAUAAAUAAAUUCAUGU [LeftA1]”: the “apparent KD of MS2 coat protein” value was 19.8 nM (input ligand: arginine 13.2 mM); 13.5 nM (input ligand: none); 21 nM under setting [1]; 19 nM under setting [2]; 15.8 nM under setting [3].
The like results for “ACAUGAGGAUCACCCAUGUACAUAAGGGAAGGAGCGCGGUGAGACGCAGGUAGGUCGCCCAUAAUAACAAACAUUAAAUUCAUGU [#25 Same State - Arginine A]” were, in that order, 17.2 nM, 17.7 nM, 25.5 nM, 21.3 nM and 19.1 nM.
The like results for “ACAUGAGGAUCACCCAUGUACAUGAGGGAAGGAGCGGUACAUGUGCCAGGUAGGUCGCCCAACAGCAUCAGCCAUGUACAUCAGC [ppsmullin]” were, in that order, 38.1 nM, 113 nM, 117 nM, 83.5 nM and 49.7 nM.
With “ACAUGAGGAUCACCCAUGUAGUGGCACGAUACCAGCUGAUCCCGUGGCCCUUGGCAGCGUCCGGUGUGGUCUGCCGGGAUGGAGC [WBWMULLIN]”, the “apparent KD of MS2 coat protein” value by setting is: (input ligand: arginine 13.2 mM) 25 nM; under setting [1], 40.7 nM; under setting [3], 24.8 nM.
For the sequence “ACAUGAGGAUCACCCAUGUAUCAACGGGAAGGAGCGCCAAACAAGGCAGGUAGGUCGCCCACAUGAGGAUCACCCGUGUGUUGGG [Exclusion Arginine A GF 30]”, the “apparent KD of MS2 coat protein” value was 23.1 nM (input ligand: arginine 13.2 mM); 37.8 nM (input ligand: none); 58.5 nM under setting [1]; 43.9 nM under setting [2]; 38.4 nM under setting [3].
Consider “ACAUGAGGAUCACCCAUGUAUUACCGGGAAGGAGCGCGUAAGGACGCAGGUAGGUCGCUCGGCGUCGUGCUGUAAAGCACGACGA [#1 Same State - Arginine A Attempt #24 (HarryS)]”, for which the “apparent KD of MS2 coat protein” value by setting is: (input ligand: arginine 13.2 mM) 67.7 nM; (input ligand: none) 14.9 nM; under setting [1], 18.6 nM; under setting [2], 14.9 nM; under setting [3], 15.3 nM.
With “ACAUGAGGAUCACCCAUGUAUUACCGGGAAGGAGCGCGUAAGGACGCAGGUAGGUCGCUCGGCGUCUGGCCGCAAGGCUGGACGA [#1 Same State - Arginine A Attempt #18 (HarryS)]”, the “apparent KD of MS2 coat protein” value was found to be 12.6 nM (input ligand: arginine 13.2 mM); 15.5 nM (input ligand: none); 21.3 nM under setting [1]; 15.2 nM under setting [2]; 15.9 nM under setting [3].
As for “ACAUGAGGAUCACCCAUGUCAUGAGGUUCACGAGGACCGGUACGGCCGCCACUCGGGCUUCGGAUCACGGAUGUACAUGAUGAUC [kmullin1]”, the “apparent KD of MS2 coat protein” value reads like this: (input ligand: arginine 13.2 mM) 45.4 nM; under setting [1], 92.2 nM; under setting [2], 123 nM.
In the same order, the values of “ACAUGAGGAUCACCCAUGUGCAUCACCCGACGAGGACCGGUACGGCCGCCACUCGGGUAUAUAUUUGCAUCGGGUGAUUUUACGU [#25 Tryptophan A Same State]” are 15.5 nM, 59.5 nM and 61.6 nM.
Consider “ACAUGAGGAUCACCCAUGUGGCGAGUUGAUACCAGACCCGCACUAGUCCCUUGGCAGCAACUACGUGUGGGACACCCAUGUUAAG [qpqmullin]”, for which the “apparent KD of MS2 coat protein” value reads like this: (input ligand: arginine 13.2 mM) 35.1 nM; (input ligand: none) 57.6 nM; under setting [1], 76.2 nM; under setting [2], 77.1 nM; under setting [3], 39.5 nM.
For the sequence “ACAUGAGGAUCACCCAUGUUCCUCAUUGAUACCAGUGAAUUUAGACGCCCUUGGCAGCGAGUUUAAGAAGAAGAAGUUUUUUUUU [6.C]”, the “apparent KD of MS2 coat protein” value (input ligand: arginine 13.2 mM) was 124 nM, the “apparent KD of MS2 coat protein” value under setting [1] was 819 nM and the “apparent KD of MS2 coat protein” value under setting [3] came out at 875 nM.
The like results for “ACAUGAGGAUCACCCAUGUUCCUCUUUGAUACCAGUGAGUUGUUUCGCCCUUGGCAGCGAGUGUUUGUUUUUUUGUUUUGUUUGG [6.S]” were, in that order, 137 nM, 314 nM and 229 nM.
With “ACCAACCACACCCUUCACUGUUUUCGCCGCCGAGGACCGGUACGGCCGCCACUCGUACAAAGACAUGAGGAUCACCCAUGUGCCU [theeternabot_exclusion_MS2_Trp_A_7]”, the “apparent KD of MS2 coat protein” value reads like this: (input ligand: arginine 13.2 mM) 14.8 nM; under setting [1], 20.3 nM; under setting [2], 20.4 nM.
On to “ACGACGCAUACAGAUACCAGUAGAACAUGAGGAUCACCCAUGUCUGAGGCGCUCCGCCACUGCCCUUGGCAGCUGUAUGCGUCAG [SSTheo B #11]”, for which the “apparent KD of MS2 coat protein” value by setting is: (input ligand: arginine 13.2 mM) 9.42 nM; under setting [1], 12.6 nM; under setting [3], 9.81 nM.

Source of the values: the supplement of paper PMC9170038.
